# Measurements reported in the DeepSol protein solubility set.
# Assay: soluble on expression in E. coli; label from the status in PepcDB or PDB records
row,Sequence,soluble on expression in E. coli
1,MSLKLEAYRTLHCDAGWRRFSFLKLIAEDGTTGISEYNECYGSPGLTGVIEGVLEWIIGKNPFSHEKLSAELYARTRQAHGGIAQQAIAAVENALVDLKARSLGVPVYELLGGAVREELPLYWSHCGSYRLPRTAEMLGVPPITSLDDLVSLGKEVREKGFSALKTNIFLFEEQPHMHQPGFARSEGWPALNPERRIINSLKEQLAAFREGAGPELEILLDLNFNYRTEGFLTVCRALDDLGLGWFEMDLYDPAALARIRHALKTPVASCESLFGLRGFRPFFENQSMDVAIVDVPWNGIWQAMKIAGLAESFEVNVAPHNFYGHLSTLMSAHFCAAIPNFRIMEIDIDDVPWKDELVTKSPLIRDGILKIPEGIGWGTELNEEAIAAHPVKNTGDDRKYDRGMGEGHHHHHH,soluble
2,MSLKLLAFDTSSTALSVAILEDDRLLADASLTIKKNHSISLMPTIDFLMKSVNLSPQDLDRIVVAEGPGSYTGLRVAVATAKTLAYTLTIDLVGVSSLAALALNSHHEGFIVPIMDARRNHVYVGFYENGRAAKADQYASLNAVLEQLKGRKQVTFVGEVTAFRQEINQTFPEAKVLEVLPSAFKIGQVGQKLTPVDVHAFVPKYLKKVEAEENWLKTHEDSGLSYVKRVEGHHHHHH,not soluble
3,MSLKLLPAKQEAIEFVHFANVINDYLYKYPDKRNSGGTLTSEQIGITPVYDIHHIIYGKRVYIWSADTEGLMSALQQQTKHSAMLGRVKNKKIVDNQGNDMGVPVPSSIPEEAIVLINEGHHHHHH,soluble
4,MSLKNLITKLENEERLNQEEANALWDLDLFTLGKYAHKKRTKLHGKKVYFNINRHINPTNICADTCKFCAFSAHRKNPNPYLMTHEEIMKIVDETVKRETKEVHIVSAHNKDTTWQWYLEIFKMIKEKYPNLHVKAMTAAEIDFLHRRFKMSYEEVIEKMLEYGVDSMPGGGAEIFDEEVRKKICHGKVSSENWLKIHKLWHEKSKQSNATMLFGHIEERHHRIDHMLRLRDLQDQTGGFNAFIPLVWQRDKSFIQTDKIMDSEEILKTIAISRLVLDNIKNIKAYWATMTLNLAMVAQEFGANDLDGTIEKESIQSAGGAKSAKGTSLKTFIDMIKTSNLIPVERDSLYNELKTYEGHHHHHH,not soluble
5,MSLKPKRILLVNEQRSFQVMMKAMLINIGISRITYANSAEEARRRCQKETFDIYLLDYELGVGENGRQLLESLRDQKLIPPQSVVIMVSGDSSRAMVLSALEAEPDEYLMKPFSQEQFSFRLKRALARRQALESVFSALAKEDLPTLLAACAERADAVPRFANFCRCLQADTQLKLGQAKEARSLMRQLLAGQENSWARLTLGKACHTLGLNEEAVSHLQATLKNTPLMVEAHLWLAESQLALGNDEQAQQELKRAVDISPQSVQLSRRLAEVCLLRHDYAQAKDVLLSLIDLSRNSIHRTPHYLGAYIQSLTLYALNSNDIYHIANLQKQVNSALSRIRDSLMMSEFNYPVFEQICQARVQIALGELLKGKKMLYRANQNWLDQPATMPPSLLGETILALYQLGEFEYAESLQALLAEDEDRLLTTCIQATRDDKTVLERRQRYQQLNELGIKAYQSGELEQALGHFREALRRAPANTGAALNKIQVLLQLMQKNRKSPEFGAECKETLEVLDGIPLNPAQQDRFRKLRQEFTQLSEGHHHHHH,soluble
6,MSLKPLHYTASALALGLALMGNAQAVTTIPFWHSMEGELGKEVDSLAQRFNAENPDYKIVPTYKGNYEQNLSAGIAAFRTGNAPAILQVYEVGTATMMASKAIKPVYDVFKEAGIQFDESQFVPTVSGYYSDSKTGHLLSQPFNSSTPVLYYNKDAFKKAGLDPEQPPKTWQDLADYAAKLKASGMKCGYASGWQGWIQLENFSAWNGLPFASKNNGFDGTDAVLEFNKPEQVKHIAMLEEMNKKGDFSYVGRKDESTEKFYNGDCAMTTASSGSLANIREYAKFNYGVGMMPYDADAKDAPQNAIIGGASLWVMQGKDKETYTGVAKFLDFLAKPENAAEWHQKTGYLPITKAAYDLTREQGFYEKNPGADTATRQMLNKPPLPFTKGLRLGNMPQIRVIVDEELESVWTGKKTPQQALDTAVERGNQLLRRFEKSTKSEGGSHHHHHH,soluble
7,MSLKRKIETFLAKWKKSEDRKPLVIKGIRQCGKTYIVQKFAKENYESVVYMNFILEPDKKSAFTGNIDVDTIILNLSALIQGSRFINGKTCIILDEIQECKEARTALKSFHIDGRFDVIATGSLLGVKGYDKSKKKKEEEEGQDSVPVGYETVIDMYPLDFEEFLWANGISDMVIDSVKSCFENESTVPDGIHKAMMELLYRYVIVGGLPEVVNCFLETKNIELIYKVQRNLIAEYEEDMVKYADDPDKPRIRECFESIPKQLAKENKKFQYSVVKKGGRASQYIGSIQWLEDAGIVRRCYNTQITELPLEGNSIKGSFKVYTTDIGILMAMLDYGTQADILKGNLLGYKGAIFENLMADFLCKSGQKLYYFHKDSGLELDFLVRFKGECVILEVKAKTGKAKSMTTVLKNKDVYYVNNAIKLGQYNVGCEGDILTIPLYMGFLVEDKLADVIIPDVDVSLLTTIEGHHHHHH,soluble
8,MSLKRKVLFTAVMVLAGLQLLSGCGKTEASANDTVVLRYAYASNSQPVIDSMKKFGELVEEKTDGKVQIEYFPDGQLGGETELIELTQTGAIDFAKVSGSALESFSKDYSVFAIPYIFDNEKHFFKVMDNQALMQPVYDSTKKLGFVGLTYYDSGQRSFYMSKGPVTSPDDLKGKKIRVMQSETAIKMVELLGGSPVPMGSSEVYTSLQSNLINGAENNEFVLYTAGHGGVAKYYSYDEHTRVPDIVIMNEGTKERLTAKQEQAIEEAAKESTAFEKTVFKEAVEEEKKKAQAEYGVVFNQVDSEPFQKLVQPLHESFKNSSEHGELYQAIRQLADEGGSHHHHHH,soluble
9,MSLKRLNLYIFGENNILDILIKNGSVFSGNNNEPESNNIGIKKSKIDFIGKESPESKKVIDAKDYIVTPGFIDIHTHSDISFLVDPEADSKLTQGVTFEFLGNCGMSFCAPLNSASKQTLSDRLSKYNSDVKIDWNDFTDWLNKIEKNIPSINVAAQLGHGVLRSYVMGMKAVSATPEDIEAMKNIVRSSIDQGVLGFSTGLWYAPGSYSHTEEIVEITKVVAEHDLLYSSHIRSESDDASGLFPAHAEAIEIGRRTGAKIQISHVKSVGPQFWGRGKELLEGMYKAREEGIDVAGDQYPYEWSSTPTSGCMFPRWSLEGGREKTLERLKDKNIREAIKSETINYINRFHGSAGCVLAEFSNDKKLEGLNLSEISEEFSCSPEEAAMRLYEISEGSFVLHSMEEQDVDTIGMSDIIAVASDGNSLRNTGPLSNGKPHPRSYGTNTRFIEDMVVNKKKVSISNAIYRMTSLPASRIGLKNRGEIKKGYFADINIFKPEELREKATYVDPHQYSTGMKWVLVNGKIALKDGKKIEGRFGKVVRSKEGEGHHHHHH,soluble
10,MSLKRSIHVQAFVYNEKKDEILIVRNRNLAWTFPGGHVETDQTMEEALASKVKEQTNIDIEIESILHCKERRATWEHVCTFVFRAKPVGEMATFSNDDNVFRVKWIPIPLADDLLPIDQLSLNELVRSEGVLYENEGHHHHHH,soluble
11,MSLKSHVRSFKTYIRDEIIKKGGWVNAHAHADRAFTMTPEKIGIYHSSNLQQKWDLVDEVKRTSSVDDYYARFCQSIELMISQGVTAFGTFVDIDPICEDRAIIAAHKAREVYKHDIILKFANQTLKGVIEPTARKWFDIGAEMVDMIGGLPYRDELDYGRGLEAMDILLDKAKSLGIMCHVHVDQFNNPSEKETEQLCDKTIEHGMEGRVVGIHGISIGSHSKEYRYKLYEKMRKAKMMMIACPMAWIDSNRKEDLMPFHNALTPADEMIPEGITVALGTDNICDYMVPLCEGDLWQELSLLAAGCRFPHLDEMVNIASINGRKVLGLELIEGHHHHHH,soluble
12,MSLKTKTFKMQLQFLSEQNLEINNNNQLLNQEKITYLQKIEQLKCKLEYQERMIKDSEKIREESFASAKAALFDLGKDLSKQLIEIHKMENNTTRELAEKNIETASQKFNTELERLITMVGALNKDIEQSKGTVDLIKQSLLSPIGAGLLSEITLENILKSSGLRPNLDFIMQYSLTTSDSVKLRPDAIIFLPSGNLMVIDSKASKFLVDSQDNSVHLSKTMNYHLKTLTNKDYAENILTNLNKKTQNFNNVITLMFLPTEQAVEKVIAANPEFLQKAWGCNIFPVGPAGLMNMLSFAKFQITDNRRSENYKVIIEEVRKLLSSIGTIADYSKKIGYNLQNMVTNYDKFAASFNRNVMSRVKSIQKLGIDSGNKIIPATLERYQIVSAKSEIIEVDVENQHKEGHHHHHH,not soluble
13,MSLKTLLPTSTAGSLPKPSWLAQPEKLWSPWKLQDEELIEGKRDALRLSLNDQQQAGIDIVSDGEQTRQHFVTTFIEHLSGVDFEKRETVRIRNRYDASVPTVVGAVSREKPVFVEDAKFLRQQTRQPIKWALPGPMTMIDTLYDSHYKSREKLAWEFAKILNQEARELEAAGVDIIQFDEPAFNVFFDEVNDWGVATLEKAIEGLKCETAVHICYGYGIKANTDWKKTLGSEWRQYEEAFPKLQKSNIDLISLECHNSRVPMDLIELIRGKKVMVGAIDVATSAIETPEEVADTLRKALRFVDADKLYPCTNCGMAPLSRQVARSKLNALGAGAEIIRRELSVEGHHHHHH,soluble
14,MSLKTQQLLTIGQLAKFSGLHVKALRYYEKIGILNPTAIDKQNGYRYYSYAHIPYVNMIKICANYGLPLKQFTHYILDDGSIDMNAILKEAQLKIEEKERQLQSDERYLRFFSEQINFSQKLDKTTNLHIEQGNKDYFLLPFTGEMLSAKYYEAVRCALAEIEKCQMTFDDRVGCYFKYDDQQVNSFIAIKIKECQEDKTNFLSLCLNHRHIHAQHLTKDRIQPKIKELHQKESINEFLILETFESPYQLSQPHLEMQYVVDNTGEGHHHHHH,soluble
15,MSLKVDQKEEQVQKRLEALDKLTKTLAIVEQYYVDDQNISDLVDKSLSGLLSNLDAHSSFLNEKDFNDMKIQTNGEFGGLGITVGMKDGALTVVSPIEGTPADKAGIKSGDIILKINDEATLGINLNDAVDKMRGKPKTQITLTIFRKGATKPFDVTLTREIIKIESVYAKMIENENILYLRVTNFDKNVVDVASKELKKYPNVKGVILDLRNNPGGLLNQAIGLVNLFVDKGVIVSQKGRIASENQEYKADPKNKISNASLVVLVNGGSASASEIVSGALQDLKRGVIVGENTFGKGSVQQIIPINKTEALRLTIARYYLPSGRTIQAVGVKPDIEVFPGKVNTQEGHHHHHH,soluble
16,MSLKVLIIGGVAAGTKTAAKIKREMGDNCSVTILNKGDDISYAGCGLPYYVGKIIEDKSSLIVNTPESFSKLTGAEVRCGVEVTSIDRNAKQVTLKTLSTGEKENLSYDKLVIATGADPIKPPIPGIDLPGVFFMRTPNDAIKLRDSIENGIKRAVVIGGGFIGLEIAENLSAMGIRVSVVDMAEHVMPGFDTDFAEYVENHMADKGIMIFTGDQVVGIEGENKVEKLRTKNRAIKTDLVVMSVGIRPNTGFLKDTGLEFAPNNTIIADEYMLTNDKDIYVVGDCAFVKNSLTNKPTWSPMGSSANHEGRICAQNISGKSKTYNGVLGTTVVKLPELNAGKTGLSKEIAEKEGYNVCSVTIATDDKAHYYPGASNFIIRMVAEKNTRKLLGVQVMGPGAVDKIVDIAATAITLGADLYSLESMDLAYAPPFSTAIHPFVVAVNVLQNKLNGELDSVLLDEIEDFDSWTKLDVSKAPSIPSLRYIPVGEINGEIEGLAKDEKILLICAKGKNSYMAQNRLRRFGYTNTKVLEGGILFYPNLKVMEEGHHHHHH,soluble
17,MSLKYKLLVLDLDGTLTNAKKEITLHNREALIRVQQQGVKLILASGRPTFGIVPLADELRMKEFGGFILSYNGGEIIDWSTGEIVYANVLPDEVIPRLYECATRNQLPILTYDRQYIITEYPDDVYVRKEAFLNKMQIYPSTDFLKDIRLPLPKCLIVGEPHRLIPIEAELSVELQGQLSVYRSEPFFLELVPQGIDKAQSLSVLLNKLNMNREEMVAVGDGYNDLSMIQFAGLGVAMGNAQEPVKKAADYITLSNEEDGVAAVVNKFFTKAPEKGEGHHHHHH,soluble
